Measured values from PMC9352680, “A comprehensive thermodynamic model for RNA binding by the Saccharomyces cerevisiae Pumilio protein PUF4”.

T1: PUF4 RNA-binding domain (Saccharomyces cerevisiae, UniProt P25339 537-888)
T1 sequence: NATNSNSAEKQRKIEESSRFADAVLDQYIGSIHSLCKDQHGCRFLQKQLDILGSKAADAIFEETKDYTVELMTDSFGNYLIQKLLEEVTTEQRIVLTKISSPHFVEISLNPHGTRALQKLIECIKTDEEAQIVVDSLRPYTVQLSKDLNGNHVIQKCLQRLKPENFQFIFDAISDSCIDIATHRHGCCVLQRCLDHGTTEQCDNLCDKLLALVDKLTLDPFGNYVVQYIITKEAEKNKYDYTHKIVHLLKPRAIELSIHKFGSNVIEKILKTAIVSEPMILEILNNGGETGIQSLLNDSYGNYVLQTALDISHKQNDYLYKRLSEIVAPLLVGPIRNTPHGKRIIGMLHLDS


Target: T1, PUF4 RNA-binding domain
Test: Mg; RNA-MaP; 20 mM Na-HEPES pH 7.4, 30 mM KOAc, 0.75 mM MgCl2, 0.1% Tween-20, 5% glycerol, 0.1 mg/mL BSA, 2 mM DTT; 25 C; 0.0125-409.6 nM protein
Conditions: tags: N-His6-TEV cleaved; C-SNAP kept, Cy3B-labelled; label: tethered on chip by stalled RNA polymerase

| Binder | Kd |
| --- | --- |
| UCUCUUAUUAUAUAUUAACUCUCUU (ssRNA) [Id_ii_S1_P4E.3_K4.2_C4.2_[C-2A]_H4.2_A4.1_F4.1_T4.2_[G10A]_[T11C]] | 44.1 nM |
| UCUCUUAAUAUAUAUUAACUCUCUU (ssRNA) [Id_ii_S1_P4E.3_K4.2_C4.2_[C-2A]_[T-1A]_H4.2_A4.1_F4.1_T4.2_[G10A]_[T11C]] | 442 nM |
| UCUCUUAUUAUAUAUUAUUUCUCUU (ssRNA) [Id_ii_S1_P4E.3_K4.2_C4.2_[C-2A]_H4.2_A4.1_F4.1_T4.2_[G10T]] | 9.53 nM |
| UCUCUUCAUAUAUAUUAACUCUCUU (ssRNA) [Id_ii_S1_P4E.3_K4.2_C4.2_[T-1A]_H4.2_A4.1_F4.1_T4.2_[G10A]_[T11C]] | 39.7 nM |
| UCUCUUUGUGUAGUAUCUCUU (ssRNA) [Ib_S1_P4E.1_K4.1_C4.1_H4.1_[A4G]_A4.1_[T7G]_F4.1_T4.1] | 18.3 nM |
| UCUCUUCCUAUAUAUUAAAUCUCUU (ssRNA) [Id_ii_S1_P4E.3_K4.2_C4.2_[T-1C]_H4.2_A4.1_F4.1_T4.2_[G10A]_[T11A]] | 30.4 nM |
| UCUCUUACUAUAUAUUACUUCUCUU (ssRNA) [Id_ii_S1_P4E.3_K4.2_C4.2_[C-2A]_[T-1C]_H4.2_A4.1_F4.1_T4.2_[G10C]] | 26.2 nM |
| UCUCUUAUUAUAUAUUAUCUCUCUU (ssRNA) [Id_ii_S1_P4E.3_K4.2_C4.2_[C-2A]_H4.2_A4.1_F4.1_T4.2_[G10T]_[T11C]] | 18.9 nM |
| UCUCUUCGUAUAUAUUAUUUCUCUU (ssRNA) [Id_ii_S1_P4E.3_K4.2_C4.2_[T-1G]_H4.2_A4.1_F4.1_T4.2_[G10T]] | 21.9 nM |
| UCUCUUCCUAUAUAUUAUAUCUCUU (ssRNA) [Id_ii_S1_P4E.3_K4.2_C4.2_[T-1C]_H4.2_A4.1_F4.1_T4.2_[G10T]_[T11A]] | 14.5 nM |
| UCUCUUACUAUAUAUUAAUUCUCUU (ssRNA) [Id_ii_S1_P4E.3_K4.2_C4.2_[C-2A]_[T-1C]_H4.2_A4.1_F4.1_T4.2_[G10A]] | 37.5 nM |
| UCUCUUACUAUAUAUUACCUCUCUU (ssRNA) [Id_ii_S1_P4E.3_K4.2_C4.2_[C-2A]_[T-1C]_H4.2_A4.1_F4.1_T4.2_[G10C]_[T11C]] | 38.3 nM |
| UCUCUUUGUCUCUUAUCUCUU (ssRNA) [Ib_S1_P4E.1_K4.1_C4.1_H4.1_[A4C]_A4.1_[A6C]_F4.1_T4.1] | 813 nM |
| UCUCUUCAUAUAUAUUAUCUCUCUU (ssRNA) [Id_ii_S1_P4E.3_K4.2_C4.2_[T-1A]_H4.2_A4.1_F4.1_T4.2_[G10T]_[T11C]] | 25 nM |
| UCUCUUAAUAUAUAUUACUUCUCUU (ssRNA) [Id_ii_S1_P4E.3_K4.2_C4.2_[C-2A]_[T-1A]_H4.2_A4.1_F4.1_T4.2_[G10C]] | 56.4 nM |
| UCUCUUAAUAUAUAUUAGCUCUCUU (ssRNA) [Id_ii_S1_P4E.3_K4.2_C4.2_[C-2A]_[T-1A]_H4.2_A4.1_F4.1_T4.2_[T11C]] | 38.8 nM |

| Binder | Kd |
| --- | --- |
| UCUCUUAUUAUAUAUUAAAUCUCUU (ssRNA) [Id_ii_S1_P4E.3_K4.2_C4.2_[C-2A]_H4.2_A4.1_F4.1_T4.2_[G10A]_[T11A]] | 72.4 nM |
| UCUCUUACUAUAUAUUAUCUCUCUU (ssRNA) [Id_ii_S1_P4E.3_K4.2_C4.2_[C-2A]_[T-1C]_H4.2_A4.1_F4.1_T4.2_[G10T]_[T11C]] | 29.3 nM |
| UCUCUUCGUAUAUAUUAAAUCUCUU (ssRNA) [Id_ii_S1_P4E.3_K4.2_C4.2_[T-1G]_H4.2_A4.1_F4.1_T4.2_[G10A]_[T11A]] | 51.6 nM |
| UCUCUUAUUAUAUAUUAGCUCUCUU (ssRNA) [Id_ii_S1_P4E.3_K4.2_C4.2_[C-2A]_H4.2_A4.1_F4.1_T4.2_[T11C]] | 15.7 nM |
| UCUCUUUUUAUAUAUUAGCUCUCUU (ssRNA) [Id_ii_S1_P4E.3_K4.2_C4.2_[C-2T]_H4.2_A4.1_F4.1_T4.2_[T11C]] | 10.3 nM |
| UCUCUUUGUCUUUUAUCUCUU (ssRNA) [Ib_S1_P4E.1_K4.1_C4.1_H4.1_[A4C]_A4.1_[A6T]_F4.1_T4.1] | 333 nM |
| UCUCUUUUUAUAUAUUAGUUCUCUU (ssRNA) [Id_ii_S1_P4E.3_K4.2_C4.2_[C-2T]_H4.2_A4.1_F4.1_T4.2] | 8.51 nM |
| UCUCUUAAUAUAUAUUAUCUCUCUU (ssRNA) [Id_ii_S1_P4E.3_K4.2_C4.2_[C-2A]_[T-1A]_H4.2_A4.1_F4.1_T4.2_[G10T]_[T11C]] | 79.9 nM |
| UCUCUUAAUAUAUAUUAUUUCUCUU (ssRNA) [Id_ii_S1_P4E.3_K4.2_C4.2_[C-2A]_[T-1A]_H4.2_A4.1_F4.1_T4.2_[G10T]] | 54.1 nM |
| UCUCUUACUAUAUAUUAAAUCUCUU (ssRNA) [Id_ii_S1_P4E.3_K4.2_C4.2_[C-2A]_[T-1C]_H4.2_A4.1_F4.1_T4.2_[G10A]_[T11A]] | 87.3 nM |
| UCUCUUCCUAUAUAUUAUUUCUCUU (ssRNA) [Id_ii_S1_P4E.3_K4.2_C4.2_[T-1C]_H4.2_A4.1_F4.1_T4.2_[G10T]] | 26.9 nM |
| UCUCUUACUAUAUAUUAUUUCUCUU (ssRNA) [Id_ii_S1_P4E.3_K4.2_C4.2_[C-2A]_[T-1C]_H4.2_A4.1_F4.1_T4.2_[G10T]] | 25.9 nM |
| UCUCUUACUAUAUAUUAUAUCUCUU (ssRNA) [Id_ii_S1_P4E.3_K4.2_C4.2_[C-2A]_[T-1C]_H4.2_A4.1_F4.1_T4.2_[G10T]_[T11A]] | 27.2 nM |
| UCUCUUAUUAUAUAUUACAUCUCUU (ssRNA) [Id_ii_S1_P4E.3_K4.2_C4.2_[C-2A]_H4.2_A4.1_F4.1_T4.2_[G10C]_[T11A]] | 42.9 nM |
| UCUCUUCCUAUAUAUUACCUCUCUU (ssRNA) [Id_ii_S1_P4E.3_K4.2_C4.2_[T-1C]_H4.2_A4.1_F4.1_T4.2_[G10C]_[T11C]] | 28 nM |
